Here are results for 1 substance from paper PMC13334617.

The target in the test is wild-type AC fused to GFP (AC-GFP), encoded by plasmid pAC0-Gfp (Bordetella pertussis | not stated) (UniProt P0DKX7). Nature of the test: two-hybrid.

As for “calmodulin (CaM) with a 6-histidine tag at its N-terminus and a tetra-cysteine tag at its C-terminus, encoded by plasmid pTCam (from UniProt P0DP23 1-149) (natural protein)”, the cAMP is more than 250 nmol/mg and the ß gal (Rel. Units) turned out to be 106 Rel. Units.
